Data as given in publication PMC9231623, “ESCPE-1 mediates retrograde endosomal sorting of the SARS-CoV-2 host factor Neuropilin-1” (Proceedings of the National Academy of Sciences of the …, 2022).

What was measured:
SNX5 PX domain = target: T1, SNX5 PX domain (UniProt Q9Y5X3 25-172); test: ITC; Microcal ITC200, 298 K; 50 mM Hepes pH 7.5, 200 mM NaCl, 0.5 mM TCEP; SNX5/6 PX titrated with NRP1 peptide, 13 injections; single site binding model; mean of three experiments; details: both partners purified
T1 construct: PX domain of sorting nexin 5, from a pGEX-4T-2 construct; also called PX domain of SNX5; source: E. coli BL21 (DE3), purified (glutathione Sepharose 4B, thrombin cleavage, Superdex 75 gel filtration)
T1 sequence (looked up): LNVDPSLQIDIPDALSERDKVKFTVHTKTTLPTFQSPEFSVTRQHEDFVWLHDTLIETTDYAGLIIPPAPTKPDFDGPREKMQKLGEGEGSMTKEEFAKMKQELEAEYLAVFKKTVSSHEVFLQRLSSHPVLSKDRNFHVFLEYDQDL

SNX6 PX domain = target: T2, SNX6 PX domain (UniProt Q9UNH7 26-173); test: as above; details: both partners purified
T2 construct: PX domain of sorting nexin 6, from a pGEX-4T-2 construct; also called PX domain of SNX6; source: E. coli BL21 (DE3), purified (glutathione Sepharose 4B, thrombin cleavage, Superdex 75 gel filtration)
T2 sequence (looked up): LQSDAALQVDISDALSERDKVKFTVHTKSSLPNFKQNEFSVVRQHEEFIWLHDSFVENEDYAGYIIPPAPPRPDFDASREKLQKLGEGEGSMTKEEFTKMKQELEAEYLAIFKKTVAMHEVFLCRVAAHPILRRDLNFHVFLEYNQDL

B1: NRP1 peptide (residues 894 to 918 of the cytosolic tail) (peptide)
peptide: not shown
notes: Neuropilin-1 cytosolic tail, residues 894 to 918; only stretches of it are printed (898-NYNFELV-904, 905-DG-906, 907-VKLKKD-912); also called synthetic peptide corresponding to these residues in NRP1; source: synthetic peptide
Kd (SNX5 PX domain): 19.8 µM
Kd (SNX6 PX domain): 14.3 µM
